Values of other authors, collected in article PMC4016011.

Target: neuronal nitric oxide synthase PDZ (UniProt P29475)
Sequence (P29475 17-99): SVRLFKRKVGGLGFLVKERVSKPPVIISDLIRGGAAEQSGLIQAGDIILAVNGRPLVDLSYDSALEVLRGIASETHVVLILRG

syntrophin PDZ, sequence (Q13424 87-170): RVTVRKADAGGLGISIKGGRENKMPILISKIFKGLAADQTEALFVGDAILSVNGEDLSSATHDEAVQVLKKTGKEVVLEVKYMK

Q: For syntrophin PDZ (from UniProt Q13424), which Kd is on record?
A: The Kd was 600 nM.
